Test results from IntAct's records for PubMed 31515488.

B1: Four and a half LIM domains protein 2 (Homo sapiens), Q14192 (parent)
chain: MTERFDCHHCNESLFGKKYILREESPYCVVCFETLFANTCEECGKPIGCDCKDLSYKDRHWHEACFHCSQCRNSLVDKPFAAKEDQLLCTDCYSNEYSSKCQECKKTIMPGTRKMEYKGSSWHETCFICHRCQQPIGTKSFIPKDNQNFCVPCYEKQHAMQCVQCKKPITTGGVTYREQPWHKECFVCTACRKQLSGQRFTARDDFAYCLNCFCDLYAKKCAGCTNPISGLGGTKYISFEERQWHNDCFNCKKCSLSLVGRGFLTERDDILCPDCGKDI
partner: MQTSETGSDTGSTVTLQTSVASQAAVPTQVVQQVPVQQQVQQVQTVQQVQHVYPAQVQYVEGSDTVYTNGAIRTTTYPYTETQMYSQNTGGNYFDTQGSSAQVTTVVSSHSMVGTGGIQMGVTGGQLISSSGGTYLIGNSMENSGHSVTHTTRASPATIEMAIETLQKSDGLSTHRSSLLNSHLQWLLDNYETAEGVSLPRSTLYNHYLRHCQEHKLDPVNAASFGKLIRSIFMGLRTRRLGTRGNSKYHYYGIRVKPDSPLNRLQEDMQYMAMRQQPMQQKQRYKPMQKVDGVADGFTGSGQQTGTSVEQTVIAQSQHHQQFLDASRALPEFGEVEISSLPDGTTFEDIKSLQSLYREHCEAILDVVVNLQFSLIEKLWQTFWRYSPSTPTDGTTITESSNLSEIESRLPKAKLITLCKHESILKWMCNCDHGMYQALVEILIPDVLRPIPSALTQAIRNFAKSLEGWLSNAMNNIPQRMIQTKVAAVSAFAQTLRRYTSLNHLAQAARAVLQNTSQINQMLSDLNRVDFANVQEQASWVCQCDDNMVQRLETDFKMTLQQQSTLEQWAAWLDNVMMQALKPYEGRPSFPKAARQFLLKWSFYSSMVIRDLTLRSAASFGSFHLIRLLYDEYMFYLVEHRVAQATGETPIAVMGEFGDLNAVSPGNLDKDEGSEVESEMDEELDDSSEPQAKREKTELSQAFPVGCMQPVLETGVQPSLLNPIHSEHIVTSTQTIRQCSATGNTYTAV
B2: Embryonal Fyn-associated substrate (Homo sapiens), O43281 (parent)
chain: MAIATSTQLARALYDNTAESPQELSFRRGDVLRVLQREGAGGLDGWCLCSLHGQQGIVPANRVKLLPAGPAPKPSLSPASPAQPGSPYPAPDHSNEDQEVYVVPPPARPCPTSGPPAGPCPPSPDLIYKIPRASGTQLAAPRDALEVYDVPPTALRVPSSGPYDCPASFSHPLTRVAPQPPGEDDAPYDVPLTPKPPAELEPDLEWEGGREPGPPIYAAPSNLKRASALLNLYEAPEELLADGEGGGTDEGIYDVPLLGPEAPPSPEPPGALASHDQDTLAQLLARSPPPPHRPRLPSAESLSRRPLPALPVPEAPSPSPVPSPAPGRKGSIQDRPLPPPPPRLPGYGGPKVEGDPEGREMEDDPAGHHNEYEGIPMAEEYDYVHLKGMDKAQGSRPPDQACTGDPELPERGMPAPQEALSPGEPLVVSTGDLQLLYFYAGQCQSHYSALQAAVAALMSSTQANQPPRLFVPHSKRVVVAAHRLVFVGDTLGRLAASAPLRAQVRAAGTALGQALRATVLAVKGAALGYPSSPAIQEMVQCVTELAGQALQFTTLLTSLAP
B3: Protein BANP (Homo sapiens), Q8N9N5-2 (parent)
chain: MMSEHDLADVVQIAVEDLSPDHPVVLENHVVTDEDEPALKRQRLEINCQDPSIKSFLYSINQTICLRLDSIEAKLQALEATCKSLEEKLDLVTNKQHSPIQVPMVAGSPLGATQTCNKVRCAVPGRRQNTIVVKVPGQEDSHHEDGESGSEASDSVSSCGQAGSQSIGSNVTLITLNSEEDYPNGTWLGDENNPEMRVRCAIIPSDMLHISTNCRTAEKMALTLLDYLFHREVQAVSNLSGQGKHGKKQLDPLTIYGIRCHLFYKFGITESDWYRIKQSIDSKCRTAWRRKQRGQSLAVKSFSRRTPNSSSYCPSEPMMSTPPPASELPQPQPQPQALHYALANAQQVQIHQIGEDGQVQVIPQGHLHIAQVPQGEQVQITQDSEGNLQIHHVGQDGQVLQGAQLIAVASSDPAAAGVDGSPLQGSDIQVQYVQLAPVSDHTAGAQTAEALQPTLQPEMQLEHGAIQIQ
partner: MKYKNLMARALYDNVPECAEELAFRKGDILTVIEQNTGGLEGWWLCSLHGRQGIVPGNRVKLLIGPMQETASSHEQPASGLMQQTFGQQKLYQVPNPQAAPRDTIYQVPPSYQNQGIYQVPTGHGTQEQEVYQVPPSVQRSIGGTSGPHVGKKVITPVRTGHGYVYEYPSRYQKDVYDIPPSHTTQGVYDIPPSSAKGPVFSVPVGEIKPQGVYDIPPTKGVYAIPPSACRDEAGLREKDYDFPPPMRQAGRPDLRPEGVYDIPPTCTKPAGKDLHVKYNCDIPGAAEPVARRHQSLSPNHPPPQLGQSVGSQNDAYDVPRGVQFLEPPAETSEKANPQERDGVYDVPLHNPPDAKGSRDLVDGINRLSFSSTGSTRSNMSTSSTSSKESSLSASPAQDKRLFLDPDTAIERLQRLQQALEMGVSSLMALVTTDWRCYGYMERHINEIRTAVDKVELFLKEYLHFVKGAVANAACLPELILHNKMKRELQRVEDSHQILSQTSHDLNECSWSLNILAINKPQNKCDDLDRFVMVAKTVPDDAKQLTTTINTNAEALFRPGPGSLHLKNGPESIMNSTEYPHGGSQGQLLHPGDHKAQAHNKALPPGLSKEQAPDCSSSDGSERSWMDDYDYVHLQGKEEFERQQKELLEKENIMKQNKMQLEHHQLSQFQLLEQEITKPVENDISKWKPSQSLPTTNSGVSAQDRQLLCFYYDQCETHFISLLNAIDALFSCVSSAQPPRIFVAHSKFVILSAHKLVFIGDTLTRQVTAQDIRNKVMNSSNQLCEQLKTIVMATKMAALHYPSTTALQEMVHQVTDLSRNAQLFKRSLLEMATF
B4: RUN and FYVE domain-containing protein 1 (Homo sapiens), Q96T51-2 (parent)
chain: MMEERANLMHMMKLSIKVLLQSALSLGRSLDADHAPLQQFFVVMEHCLKHGLKVKKSFIGQNKSFFGPLELVEKLCPEASDIATSVRNLPELKTAVGRGRAWLYLALMQKKLADYLKVLIDNKHLLSEFYEPEALMMEEEGMVIVGLLVGLNVLDANLCLKGEDLDSQVGVIDFSLYLKDVQDLDGGKEHERITDVLDQKNYVEELNRHLSCTVGDLQTKIDGLEKTNSKLQEELSAATDRICSLQEEQQQLREQNELIRERSEKSVEITKQDTKVELETYKQTRQGLDEMYSDVWKQLKEEKKVRLELEKELELQIGMKTEMEIAMKLLEKDTHEKQDTLVALRQQLEEVKAINLQMFHKAQNAESSLQQKNEAITSFEGKTNQVMSSMKQMEERLQHSERARQGAEERSHKLQQELGGRIGALQLQLSQLHEQCSSLEKELKSEKEQRQALQRELQHEKDTSSLLRMELQQVEGLKKELRELQDEKAELQKICEEQEQALQEMGLHLSQSKLKMEDIKEVNQALKGHAWLKDDEATHCRQCEKEFSISRRKHHCRNCGHIFCNTCSSNELALPSYPKPVRVCDSCHTLLLQRCSSTAS
partner: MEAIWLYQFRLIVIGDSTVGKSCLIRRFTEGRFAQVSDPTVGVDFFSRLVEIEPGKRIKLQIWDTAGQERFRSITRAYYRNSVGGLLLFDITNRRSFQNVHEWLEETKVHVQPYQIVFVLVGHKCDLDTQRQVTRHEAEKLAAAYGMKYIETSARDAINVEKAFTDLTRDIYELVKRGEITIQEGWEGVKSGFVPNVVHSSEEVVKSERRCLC

Variants of: B1
Conditions: with rfx3_human RFX3, P48380

Variant | effect of a mutation on the interaction
A37S | with no effect

Variants of: B2
Conditions: with blk_human BLK

Variant | effect of a mutation on the interaction
S265F | with no effect
A140D | with no effect

Variants of: B2
Conditions: with nck2_human NCK2, O43639
Chain of nck2_human NCK2, O43639 (O43639 whole entry): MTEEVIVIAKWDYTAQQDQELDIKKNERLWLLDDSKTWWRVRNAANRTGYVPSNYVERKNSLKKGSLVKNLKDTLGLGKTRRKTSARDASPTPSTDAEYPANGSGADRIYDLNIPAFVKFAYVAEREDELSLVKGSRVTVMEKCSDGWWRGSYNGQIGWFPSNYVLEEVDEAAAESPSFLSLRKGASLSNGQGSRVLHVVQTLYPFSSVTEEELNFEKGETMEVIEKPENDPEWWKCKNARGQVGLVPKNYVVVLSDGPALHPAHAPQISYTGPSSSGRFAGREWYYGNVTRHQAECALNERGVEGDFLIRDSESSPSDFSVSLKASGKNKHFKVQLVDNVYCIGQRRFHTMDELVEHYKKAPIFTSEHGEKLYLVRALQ

Variant | effect of a mutation on the interaction
S265F | with no effect
A140D | with no effect

Variants of: B2
Conditions: with abi2_human ABI2, Q9NYB9
Chain of abi2_human ABI2, Q9NYB9 (Q9NYB9 whole entry): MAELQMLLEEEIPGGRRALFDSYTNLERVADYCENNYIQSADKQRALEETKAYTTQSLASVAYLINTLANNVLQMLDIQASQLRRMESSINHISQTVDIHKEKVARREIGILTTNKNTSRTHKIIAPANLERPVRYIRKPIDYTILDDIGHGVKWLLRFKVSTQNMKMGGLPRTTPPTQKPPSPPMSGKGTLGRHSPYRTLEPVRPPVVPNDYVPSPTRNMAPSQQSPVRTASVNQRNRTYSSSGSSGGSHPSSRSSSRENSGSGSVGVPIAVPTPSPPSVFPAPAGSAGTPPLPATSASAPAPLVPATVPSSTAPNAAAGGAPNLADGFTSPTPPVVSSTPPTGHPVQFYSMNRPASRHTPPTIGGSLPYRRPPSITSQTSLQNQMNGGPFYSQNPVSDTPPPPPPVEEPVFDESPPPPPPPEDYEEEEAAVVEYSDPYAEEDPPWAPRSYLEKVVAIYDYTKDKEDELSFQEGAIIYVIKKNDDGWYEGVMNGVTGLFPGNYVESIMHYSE

Variant | effect of a mutation on the interaction
S265F | with no effect
A140D | with no effect

Variants of: B2
Conditions: with fyn_human FYN

Variant | effect of a mutation on the interaction
S265F | with no effect
A140D | with no effect

Variants of: B3
Conditions: with casl_human NEDD9, Q14511

Variant | effect of a mutation on the interaction
A162V | with no effect

Variants of: B4
Conditions: with rb39b_human RAB39B

Variant | effect of a mutation on the interaction
C159F | with no effect
